B1: TMPRSS4 Ab59 scFv (VH-VL) (scFv)
scFv: QVQLVQSGAEVKKPGASVKVSCKASGGTFSSYTLSWVRQAPGQGLEWMGWIHPKSGVTKNAQKFQGRVTMTRDTSTSTVYMELSSLRSEDTAVYYCARGWVYGRMDAWGQGTTVTVSSGGGGSGGGGSGGGGSEIVMTQSPATLSVSPGERATLSCRASQSVSSNYLAWYQQKPGQAPRLLIYGASTRATGIPARFSGSGSGTEFTLTISSLQSEDFAVYYCQQYGTLPYTFGQGTKVEIK
notes: on monoclonal phage in the screen
B2: TMPRSS4 Ab40 scFv (VH-VL) (scFv)
scFv: QVQLVQSGAEVKKPGASVKVSCKASGGTFSSYAISWVRQAPGQGLEWMGIINPRGGSTNYAQKFQGRVTMTRDTSTSTVYMELSSLRSEDTAVYYCAREGSSWYYDAFDIWGQGTMVTVSSGGGGSGGGGSGGGGSDIQMTQSPSSLSASVGDRVTITCRASQSISSYLNWYQQKPGKAPKLLIYAAYNLQSGVPSRFSGSGSGTDFTLTISSLQPEDFATYYCQQSYSIPFTFGGGTKVEIK
notes: as for B1
B3: TMPRSS4 Ab52 scFv (VH-VL) (scFv)
scFv: QVQLVQSGAEVKKPGASVKVSCKASGYTFTRYYIHWVRQAPGQGLEWMGWMNPNSGNTGFAQKLQGRVTMTRDTSTSTVYMELSSLRSEDTAVYYCARGPFPRGRLDLWGQGTLVTVSSGGGGSGGGGSGGGGSDIQMTQSPSSLSASVGDRVTITCRASQGISRWLGWYQQKPGKAPKLLIYGASNLQTGVPSRFSGSGSGTDFTLTISSLQPEDFATYYCQQSYSSPRTFGQGTKVEIK
notes: as for B1
B4: TMPRSS4 Ab60 scFv (VH-VL) (scFv)
scFv: QVQLVQSGAEVKKPGASVKVSCKASGYSFTTYYIHWVRQAPGQGLEWMGIINPSGGSTSYAQKFQGRVTMTRDTSTSTVYMELSSLRSEDTAVYYCARGGYYGSGYNSVGYWGPGTLVTVSSGGGGSGGGGSGGGGSEIVMTQSPATLSVSPGERATLSCRASQSVSSNTLAWYQQKPGQAPRLLIYGASTRATGIPARFSGSGSGTEFTLTISSLQSEDFAVYYCQQYGSSPLTFGPGTKVDIK
notes: as for B1
B5: TMPRSS4 Ab45 scFv (VH-VL) (scFv)
scFv: QVQLVQSGAEVKKPGASVKVSCKASGYTFSRWYMHWVRQAPGQGLEWMGRINPNSGGTNYAQKFQGRVTMTRDTSTSTVYMELSSLRSEDTAVYYCARVGGYGWFDPWGQGTLVTVSSGGGGSGGGGSGGGGSDIQMTQSPSSLSASVGDRVTITCQATQDIRNYLNWYQQKPGKAPKLLIYATSSLQSGVPSRFSGSGSGTDFTLTISSLQPEDFATYYCQQSYSPPYTFGQGTKLEIK
notes: as for B1
B6: TMPRSS4 Ab39 scFv (VH-VL) (scFv)
scFv: QVQLVQSGAEVKKPGASVKVSCKASGGSFSGYAVSWVRQAPGQGLEWLGVINPSDSWTAFAQKFQGRVTMTRDTSTSTVYMELSSLRSEDTAVYYCAREREDDAFDIWGQGTTVTVSSGGGGSGGGGSGGGGSDIQMTQSPSSLSASVGDRVTITCRASQGIRNWLAWYQQKPGKAPKLLIYRASTLQSGVPSRFSGSGSGTDFTLTISSLQPEDFATYYCQQSYTTPFTFGQGTKLEIK
notes: as for B1
B7: TMPRSS4 Ab48 scFv (VH-VL) (scFv)
scFv: QVQLVQSGAEVKKPGASVKVSCKASGYTFTGYYLHWVRQAPGQGLEWMGWISAYNGNTNYAQNLQGRVTMTRDTSTSTVYMELSSLRSEDTAVYYCARHSYSGSYSTLPYYGMDVWGQGTTVTVSSGGGGSGGGGSGGGGSDIQMTQSPSSLSASVGDRVTITCRASQGISNYLAWYQQKPGKAPKLLIYTASTLFPGVPSRFSGSGSGTDFTLTISSLQPEDFATYYCQQSYSIPLTFGGGTKVEIK
notes: as for B1
B8: TMPRSS4 Ab53 scFv (VH-VL) (scFv)
scFv: QVQLVQSGAEVKKPGASVKVSCKASGYTFTRYYMHWVRQAPGQGLEWMGIINPTGGSTSYAQKFQGRVTMTRDTSTSTVYMELSSLRSEDTAVYYCARGRTWIQSSLGYWGQGTLVTVSSGGGGSGGGGSGGGGSDIQMTQSPSSLSASVGDRVTITCRASRSINRWLAWYQQKPGKAPKLLIYGASTLQSGVPSRFSGSGSGTDFTLTISSLQPEDFATYYCQQSYSTPTFGGGTKVEIK
notes: as for B1
B9: TMPRSS4 Ab44 scFv (VH-VL) (scFv)
scFv: QVQLVQSGAEVKKPGASVKVSCKASGYTFRNYYIHWVRQAPGQGLEWMGRINPNSGGTNYAQKFQGRVTMTRDTSTSTVYMELSSLRSEDTAVYYCARARIAVAVSGFGYWGQGTLVTVSSGGGGSGGGGSGGGGSDIQMTQSPSSLSASVGDRVTITCQASQDISNYLNWYQQKPGKAPKLLIYAASSLHSGVPSRFSGSGSGTDFTLTISSLQPEDFATYYCQESSSFPYTFGPGTKVDIK
notes: as for B1
B10: TMPRSS4 Ab41 scFv (VH-VL) (scFv)
scFv: QVQLVQSGAEVKKPGASVKVSCKASGGTFSSYAISWVRQAPGQGLEWMGWMNPNSGDTHYAQKFQGRVTMTRDTSTSTVYMELSSLRSEDTAVYYCAREGSSWYYDAFDIWGQGTLVTVSSGGGGSGGGGSGGGGSDIQMTQSPSSLSASVGDRVTITCRASQSISRWLAWYQQKPGKAPKLLIYAASTLQTGVPSRFSGSGSGTDFTLTISSLQPEDFATYYCLQHSSYPFTFGQGTKVEIK
notes: as for B1
B11: TMPRSS4 Ab38 scFv (VH-VL) (scFv)
scFv: QVQLAQSGAEVKKPGASVKVSCKASGYTFTRHYIQWVRQAPGQGLEWMGWINPNSGNTGYAQKFQGRVTMTRDTSTSTVYMELSSLRSEDTAVYYCARGRQWLRGEYFQHWGQGTLVTVSSGGGGSGGGGSGGGGSDIQMTQSPSSLSASVGDRVTITCQASQDISRYLNWYQQKPGKAPKLLIYGASNLLSGVPSRFSGSGSGTDFTLTISSLQPEDFATYYCQQTHTTPYTFGQGTRLEIK
notes: as for B1
B12: TMPRSS4 Ab50 scFv (VH-VL) (scFv)
scFv: QVQLVQSGAEVKKPGASVKVSCKASGYTFTGYYMHWVRQAPGQGLEWMGWINPNSGGTHYAQKFQGRVTMTRDTSTSTVYMELSSLRSEDTAVYYCARVRIGWLQSPPLYWGQGTLVTVSSGGGGSGGGGSGGGGSDIQMTQSPSSLSASVGDRVTITCRASQGISNYLAWYQQKPGKAPKLLIYATSRLQSGVPSRFSGSGSGTDFTLTISSLQPEDFATYYCQQSYKTPLTFGGGTKVEIK
notes: as for B1
B13: TMPRSS4 Ab54 scFv (VH-VL) (scFv)
scFv: QVQLVQSGAEVKKPGASVKVSCKASGYTFTSYYMQWVRQAPGQGLEWMGWMNPNSGNTGYAQKFQGRVTMTRDTSTSTVYMELSSLRSEDTAVYYCARVRIGWLQSPPLYWGQGTLVTVSSGGGGSGGGGSGGGGSDIQMTQSPSSLSASVGDRVTITCRASQGISNYLAWYQQKPGKAPKLLIYAASSLQSGVPSRFSGSGSGTDFTLTISSLQPEDFATYYCQQSYSIPFTFGPGTKVDIK
notes: as for B1
B14: TMPRSS4 Ab49 scFv (VH-VL) (scFv)
scFv: QVQLVQSGAEVKKPGASVKVSCKASGYTFTGYYMHWVRQAPGQGLEWMGRINPNSGGTNYAQKFQGRVTMTRDTSTSTVYMELSSLRSEDTAVYYCARERAGYSSGQFDYWGQGTLVTVSSGGGGSGGGGSGGGGSDIQMTQSPSSLSASVGDRVTITCRASQSISNWLAWYQQKPGKAPKLLIYAASTLQNGVPSRFSGSGSGTDFTLTISSLQPEDFATYYCQQSYTFPITFGQGTKVEIK
notes: as for B1
B15: TMPRSS4 Ab37 scFv (VH-VL) (scFv)
scFv: EVQLLESGGGLVQPGGSLRLSCAASGFTFSSYAMHWVRQAPGKGLEWVSYISSSGSTVYYADSVKGRFTISRDNSKNTLYLQMNSLRAEDTAVYYCARVSNVTPRSGFGYWGQGTLVTVSSGGGGSGGGGSGGGGSDIQMTQSPSSLSASVGDRVTITCRASQSISRYLNWYQQKPGKAPKLLIYSASTLQSGVPSRFSGSGSGTDFTLTISSLQPEDFATYYCQQAHSFPPSFGQGTKLEIK
notes: as for B1
B16: TMPRSS4 Ab6 scFv (VH-VL) (scFv)
scFv: QVQLVQSGAEVKKPGASVKVSCKASGYTFTSYYMHWVRQAPGQGLEWLGIINPSDYTTSYAQKFQGRVTMTRDTSTSTVYMELSSLRSEDTAVYYCARVASSSWYPGDENWYFDLWGRGTLVTVSSGGGGSGSGGGGSGGGGSDIVMTQSPDSLAVSLGERATINCKSSQSVLYSSNNKNYLAWYQQKPGQPPKLLIYWASTRESGVPDRFSGSGSGTDFTLTISSLQAEDVAIYYCQQYYAIPWTFGQGTKVEIK
notes: as for B1
B17: TMPRSS4 Ab4 scFv (VH-VL) (scFv)
scFv: QVQLVQSGAEVKKPGASVKVSCKASGYFFTTYYLHWVRQAPGQGLEWMGVINPNSRLTSYAESFQGRVTMTRDTSTSTVYMELSSLRSEDTAVYYCEREMFPSSYGIDVWGQGTTVTVSSGGGGSGSGGGGSGGGGSDIVMTQSPLSLPVTPGEPASISCRSSQSLLHSNGYNYLDWYLQKPGQSPQLLIYAASTLQSGVPDRFSGSGSGTDFTLKISRVEAEDVGVYYCMQGTHWPPTFGQGTKLEIK
notes: as for B1
B18: TMPRSS4 Ab5 scFv (VH-VL) (scFv)
scFv: QVQLVQSGAEVKKPGSSVKVSCKASGYTFTSYYMHWVRQAPGQGLEWMGRIIPILGATDYAQKFQGRVTITADESTSTAYMELSSLRSEDTAVYYCARAGYSSIAARPAFWGQGTLVTVSSGGGGSGSGGGGSGGGGSEIVMTQSPATLSVSPGERATLSCRASQSVSSNLAWYQQKPGQAPRLLIYGASTRATGIPARFSGSGSGTEFTLTISSLQSEDFAVYYCQQYYSPFPLTFGGGTKVEIK
notes: as for B1
B19: TMPRSS4 Ab43 scFv (VH-VL) (scFv)
scFv: QVQLVQSGAEVKKPGASVKVSCKASGYTFIGYYMHWVRQAPGQGLEWMGRINPNSGETNYAQKFQGRVTMTRDTSTSTVYMELSSLRSEDTAVYYCARVRVRGVIHPGFDPWGQGTLVTVSSGGGGSGGGGSGGGGSDIQMTQSPSSLSASVGDRVTITCQASQDISNYLNWYQQKPGKAPKLLIYAASSLQSGVPSRFSGSGSGTDFTLTISSLQPEDFATYYCQQSYSTPVTFGPGTKVDIK
notes: as for B1
B20: TMPRSS4 Ab42 scFv (VH-VL) (scFv)
scFv: QVQLVQSGAEVKKPGASVKVSCKASGYSFTSHYMHWVRQAPGQGLEWMGWMNPNSGNTGYAQKFQGRVTMTRDTSTSTVYMELSSLRSEDTAVYYCARLGQQLDYWGQGTLVTVSSGGGGSGGGGSGGGGSDIQMTQSPSSLSASVGDRVTITCRASQSIRNYLNWYQQKPGKAPKLLIYEASRLQSGVPSRFSGSGSGTDFTLTISSLQPEDFATYYCQQSYSAPPTFGPGTKVDIK
notes: as for B1

Each binder was assayed against T1, Human TMPRSS4 (Transmembrane protease, serine 4), wild type full length (human, UniProt Q9NRS4 1-437) (assay: flow cytometry, monoclonal phage on HEK293T-TMPRSS4 cells;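 further: bound phage detected with a PE-labelled mouse anti-M13 monoclonal antibody, read by flow cytometry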).
T1 construct: Type II membrane protein over-expressed on HEK293T cells (also endogenous on H1975 and LUDLU-1 cells); also called TMPRSS4 WT; HEK293T-TMPRSS4
T1 sequence (Q9NRS4 whole entry): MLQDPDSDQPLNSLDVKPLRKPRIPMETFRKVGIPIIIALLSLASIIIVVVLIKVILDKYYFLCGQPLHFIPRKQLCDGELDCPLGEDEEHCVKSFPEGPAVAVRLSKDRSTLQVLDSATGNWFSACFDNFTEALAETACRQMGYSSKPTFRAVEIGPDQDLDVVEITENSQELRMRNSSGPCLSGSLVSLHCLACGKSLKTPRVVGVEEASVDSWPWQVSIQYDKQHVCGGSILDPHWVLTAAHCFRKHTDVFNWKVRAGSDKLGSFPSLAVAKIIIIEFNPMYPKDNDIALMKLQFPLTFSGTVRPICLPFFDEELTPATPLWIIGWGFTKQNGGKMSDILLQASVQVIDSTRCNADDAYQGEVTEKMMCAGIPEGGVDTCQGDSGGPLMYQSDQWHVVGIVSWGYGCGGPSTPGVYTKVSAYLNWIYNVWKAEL
B1: binds. B2: binds. B3: binds. B4: binds. B5: binds. B6: binds. B7: binds. B8: binds. B9: binds. B10: binds. B11: binds. B12: binds. B13: binds. B14: binds. B15: binds. B16: binds. B17: binds. B18: binds. B19: binds. B20: binds.

From patent publication US20250297255A1 (ARSENAL BIOSCIENCES, published 2025)
